In publication PMC4107134:

What was measured:
[1] = target: integrin αIIbΔ996β3 (αIIb tail truncated after GFFKR) (UniProt P05106); assay: pull-down
[2] = target: integrin αIIbβ3, wild type (UniProt P05106); assay: pull-down

Kd [1]: 206 nM
Kd [2]: 214 nM
Substance: talin head domain (THD, talin residues 1-433), purified (from UniProt P26039 1-433) (domain or fragment)
